These results are taken from publication PMC6692406, “Optimization of a reduced enzymatic reaction cascade for the production of L-alanine” (Scientific Reports, 2019).

One may read the Ki as a measure of affinity in units of concentration, obtained from inhibition or displacement. A high value points to a looser hold on the target. The Km is the substrate concentration at which the rate is half of its maximum.

Data set [1] concerns the target T1, CcDHAD (dihydroxyacid dehydratase) (Caulobacter vibrioides, UniProt Q9A9Z2).
T1 construct: gene xylD; codon-optimised gene in pET28a, recombinant in E. coli BL21(DE3), purified on His GraviTrap; MnCl2 added before freezing
T1 sequence (Q9A9Z2 1-595): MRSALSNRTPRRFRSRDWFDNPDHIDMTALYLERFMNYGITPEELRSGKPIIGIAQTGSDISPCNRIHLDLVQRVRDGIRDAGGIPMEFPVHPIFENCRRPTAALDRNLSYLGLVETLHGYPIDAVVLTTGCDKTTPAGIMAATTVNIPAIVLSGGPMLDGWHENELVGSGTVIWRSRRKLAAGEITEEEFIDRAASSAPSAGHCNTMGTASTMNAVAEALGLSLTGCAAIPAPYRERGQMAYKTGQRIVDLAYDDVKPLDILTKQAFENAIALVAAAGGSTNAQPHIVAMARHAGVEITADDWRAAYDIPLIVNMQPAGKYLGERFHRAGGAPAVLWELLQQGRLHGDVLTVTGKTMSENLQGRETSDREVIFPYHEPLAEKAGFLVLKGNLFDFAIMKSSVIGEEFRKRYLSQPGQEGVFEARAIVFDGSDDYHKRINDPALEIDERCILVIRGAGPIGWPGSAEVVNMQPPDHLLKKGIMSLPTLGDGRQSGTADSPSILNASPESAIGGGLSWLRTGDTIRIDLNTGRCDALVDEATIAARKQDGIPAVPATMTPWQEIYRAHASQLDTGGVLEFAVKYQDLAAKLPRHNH
Briefly: inhibition of D-gluconate dehydration (experimental analysis in Figure S2). Type of data set: biochemical.

Substrate in data set [2]: O=C(O)C(=O)C[C@H](O)[C@H](O)CO
As to the kind of experiment: purified protein. The class given is biochemical, Picrophilus oshimae. The settings on record: 0.03-3 mM KDG, 1 mM NAD, 50 °C, 100 mM HEPES pH 7.35, 100 mM ammonium sulfate.

Substrate in data set [3]: CC(=O)C(=O)O
As to the kind of experiment: purified protein. The class given is biochemical, Archaeoglobus fulgidus. The following applies: 0.1-1 mM pyruvate, 0.2 mM NADH, 100 mM (NH4)2SO4, 50 °C, 100 mM HEPES pH 7.35.

Substrate in data set [4]: NC(=O)C1=CN([C@@H]2O[C@H](COP(=O)(O)OP(=O)(O)OC[C@H]3O[C@@H](n4cnc5c(N)ncnc54)[C@H](O)[C@@H]3O)[C@@H](O)[C@H]2O)C=CC1
Briefly: purified protein. The class given is biochemical, Archaeoglobus fulgidus. The settings on record: 0.005-0.3 mM NADH, 1 mM pyruvate, 100 mM (NH4)2SO4, 50 °C, 100 mM HEPES pH 7.35, varied: cofactor.

Substrate in data set [5]: O=C(O)[C@H](O)[C@@H](O)[C@H](O)[C@H](O)CO
Briefly: purified protein. Type of data set: biochemical, Caulobacter vibrioides. The settings on record: 0.2-20 mM D-gluconate, 1 mM NAD, 50 °C, 100 mM HEPES pH 7.35, 100 mM ammonium sulfate, enzyme stored with MnCl2.

Substrate in data set [6]: O=C[C@H](O)CO
As to the kind of experiment: purified protein. The following applies: substrate not named in table (D-glyceraldehyde from the cascade), cofactor NAD, 50 °C, 100 mM HEPES pH 7.35, 100 mM ammonium sulfate.

Substrate in data set [7]: NC(=O)c1ccc[n+]([C@@H]2O[C@H](COP(=O)(O)OP(=O)(O)OC[C@H]3O[C@@H](n4cnc5c(N)ncnc54)[C@H](O)[C@@H]3O)[C@@H](O)[C@H]2O)c1
As to the kind of experiment: purified protein. The following applies: 50 °C, 100 mM HEPES pH 7.35, 100 mM ammonium sulfate, varied: cofactor. Type of data set: biochemical, Methanocaldococcus jannaschii.

Take `O=C(O)[C@H](O)CO` [D-glycerate]: the Ki in data set [1] is ~500 µM.

B1: PtKDGA (2-keto-3-deoxygluconate aldolase) (Picrophilus oshimae DSM 9789) (protein)
chain: MITPLDAHGNIDYNATNILIKYLEGINVDYLFPMGSTGVFPYFTLKERKDFLKFVRENSKKPIMAGVGSSSINEVNELMKFSMDIGIEAAVLMPPYYIKLNQEAIYHYYKEILSSNDMDLLIYNIPQFTNKIDPETVKNLKSEFSSVKGVKDSSADIRGFMEMLSLSDDDFAVFQGQDDLLFTSLELGASGGVCGTTNFSDGIVRLYHEYKNNREMALKIEKNDVIPLMKKLGKYQFPNAYYEYFYKKNNINGGYRPPMYRVGIEI
notes: codon-optimised gene in pET28a, recombinant in E. coli BL21(DE3), heat treated (65 °C) and purified on His GraviTrap
As for B1, in “purified protein [2]”, the Michaelis constant (Km) came to 1100 µM.

B2: AfAlaDH (L-alanine dehydrogenase) (Archaeoglobus fulgidus DSM 4304) (protein)
chain: METLILTQEEVESLISMDEAMNAVEEAFRLYALGKAQMPPKVYLEFEKGDLRAMPAHLMGYAGLKWVNSHPGNPDKGLPTVMALMILNSPETGFPLAVMDATYTTSLRTGAAGGIAAKYLARKNSSVFGFIGCGTQAYFQLEALRRVFDIGEVKAYDVREKAAKKFVSYCEDRGISASVQPAEEASRCDVLVTTTPSRKPVVKAEWVEEGTHINAIGADGPGKQELDVEILKKAKIVVDDLEQAKHGGEINVAVSKGVIGVEDVHATIGEVIAGLKDGRESDEEITIFDSTGLAIQDVAVAKVVYENALSKNVGSKIKFFRI
notes: codon-optimised gene in pET24a, recombinant in E. coli BL21(DE3), purified by heat treatment (70 °C) and desalting
Take B2: the Km in “purified protein [3]” is 200 µM; in “purified protein [4]” it was 60 µM.

B3: CcDHAD (dihydroxyacid dehydratase) (Caulobacter vibrioides CB15) (protein)
chain: T1 sequence (Q9A9Z2 1-595)
notes: codon-optimised gene in pET28a, recombinant in E. coli BL21(DE3), purified on His GraviTrap; MnCl2 added before freezing
Regarding B3, the Michaelis constant (Km) in “purified protein [5]” stood at 3200 µM.

B4: MjALDH (aldehyde dehydrogenase) (Methanocaldococcus jannaschii DSM 2661) (protein)
chain: MFIDGKWINREDMDVINPYSLEVIKKIPALSREEAKEAIDTAEKYKEVMKNLPITKRYNILMNIAKQIKEKKEELAKILAIDAGKPIKQARVEVERSIGTFKLAAFYVKEHRDEVIPSDDRLIFTRREPVGIVGAITPFNFPLNLSAHKIAPAIATGNVIVHHPSSKAPLVCIELAKIIENALKKYNVPLGVYNLLTGAGEVVGDEIVVNEKVNMISFTGSSKVGELITKKAGFKKIALELGGVNPNIVLKDADLNKAVNALIKGSFIYAGQVCISVGMILVDESIADKFIEMFVNKAKVLNVGNPLDEKTDVGPLISVEHAEWVEKVVEKAIDEGGKLLLGGKRDKALFYPTILEVDRDNILCKTETFAPVIPIIRTNEEEMIDIANSTEYGLHSAIFTNDINKSLKFAENLEFGGVVINDSSLFRQDNMPFGGVKKSGLGREGVKYAMEEMSNIKTIIISK
notes: codon-optimised gene in pET28a (NcoI/XhoI), recombinant in E. coli BL21(DE3), purified by heat treatment (70 °C) and desalting
For the molecule B4, the Michaelis constant (Km) in “purified protein [6]” and in “purified protein [7]” was 300 µM each time.
